Laboratory results published in publication PMC7374468, “Characterization of highly active 2-keto-3-deoxy-L-arabinonate and 2-keto-3-deoxy-D-xylonate dehydratases in terms of the biotransformation of hemicellulose sugars to chemicals” (Applied Microbiology and Biotechnology, 2020).

B1: PxD-KdpD (Paraburkholderia xenovorans LB400) (protein)
chain: MSATSPSSFLPDDLGQALLVGRVWRKTDQHEGPSVVVVRGGEVFDITATVPTTADLFDREDAAPLARTAPGVSLGAVAQLIASNLPGAAAPALRLLAPCDVQAIKACGVTFAVSLIERVIEEQAAGDPAKAKEVRDTIASMIGTDLSKIEPGSDAAMKLKAELERRGAWSQYMEVGIGPDAEVFSKSQPMSAVGFGADVGLLAASTWNNPEPEIVLAVNSRGEIVGATLGNDVNLRDIEGRSALLLGKCKDNNGSCAIGPFVRLFDESFSLDSVRTASVALRVEGADDGFVLEGVSHMSEISRDPANLVAQTWGRHHQYPDGFMLFLGTMFSPIKDRDAPGAGFTHHLGDLVTISTPQLGALTNTVRLSTEIEPWTFGVRALYRNLAARGLLASA
notes: C-terminal His6 tag (kept), codon-optimised synthetic gene, E. coli BL21(DE3), HisTrap purified
B2: CcD-KdpD2 (Caulobacter vibrioides NA1000) (protein)
chain: MGVSEFLPEDWKAATLLGRIDFGEGPTPVLVRGGRVEDVSKIAPTVADLMNAFQPGAVIPRGEDKGPLEALDIRPVWEDPDGAAPVKLLAPVDLQCLKAAGVTFAVSTLERVIEERARGDAGEALKIRTLLAERMGGDLKSVEPGSQGAQRLKDALIADGLWSQYLEVAIGPDAEIFTKGPTLSSMGWGDQVGVRYDSHWNNPEPEVVLLCDGSGLIRGAALGNDVNLRDFEGRSALLLSKAKDNNASCAIGPFFRLFDETFGLDDVRSAEVELKITGRDNFVLDGKSNMSLISRDPAVLAGQAYGKQHQYPDGFALFLGTMFAPIQDRDTPGQGFTHKVGDRVRVSTPKLGVLENEVTTCDKAKPWTFGISALIRNLAGRGLL
notes: C-terminal His6 tag (kept), pET vector, E. coli BL21(DE3), HisTrap purified
B3: AbL-KdpD (Azospirillum brasilense) (protein)
chain: MTSSSTPRHRGIFPVVPTTFADTGELDLASQKRAVDFMIDAGSDGLCILANFSEQFAITDDERDVLTRTILEHVAGRVPVIVTTSHYSTQVCAARSLRAQQLGAAMVMAMPPYHGATFRVPEAQIFEFYARVSDAIAIPIMVQDAPASGTALSAPFLARMAREIEQVAYFKIETPGAANKLRELIRLGGDAIEGPWDGEEAITLLADLHAGATGAMTGGGFPDGIRPILEAWREGRHDDAYARYQAWLPLINHENRQSGILTAKALMREGGVIASERPRHPMPELHPDTRAELLAIARRLDPLVLRWAH
notes: N-terminal His6 tag (kept), codon-optimised synthetic gene, E. coli BL21(DE3), HisTrap purified, lower purity
B4: CcD-KdpD1 (Caulobacter vibrioides CB15) (protein)
chain: MVCRRLLAWTARAREAEDFALVRQPTCRPHMLALPSADERAPPTVSALQTLEFWGDDAVGVSEFLPEDWKAATLLGRIDFGEGPTPVLVRGGRVEDVSKIAPTVADLMNAFQPGAVIPRGEDKGPLEALDIRPVWEDPDGAAPVKLLAPVDLQCLKAAGVTFAVSTLERVIEERARGDAGEALKIRTLLAERMGGDLKSVEPGSQGAQRLKDALIADGLWSQYLEVAIGPDAEIFTKGPTLSSMGWGDQVGVRYDSHWNNPEPEVVLLCDGSGLIRGAALGNDVNLRDFEGRSALLLSKAKDNNASCAIGPFFRLFDETFGLDDVRSAEVELKITGRDNFVLDGKSNMSLISRDPAVLAGQAYGKQHQYPDGFALFLGTMFAPIQDRDTPGQGFTHKVGDRVRVSTPKLGVLENEVTTCDKAKPWTFGISALIRNLAGRGLL
notes: C-terminal His6 tag (kept), codon-optimised synthetic gene, E. coli BL21(DE3); 58-residue N-terminal extension
B5: HsD-KdpD (Herbaspirillum seropedicae SmR1) (protein)
chain: MAHTFSLQAHLPEDHAQATLIGRIWQPGVGPVLVRIDADGAYDLTLIAATSSELLELDNPAAAVRSATNMTRIATLQELLDNADAAGRDTSRPWLLAPIDLQAVKASGVTFVASMLERVIEEQARGDAGKAESVRKAITAVIGDNLSSVVPGSPEAARLKEVLLDQGVWSQYLEVGIGPDAEIFTKAQPMSSVGLGDEVGIHPKSAWNNPEPEIVLAINSRGKVVGATLGNDVNLRDFEGRSALLLGKAKDNNASCAVGPFIRLFDANFSIDDVRRAELTMRVDGTEGFTLKGSSSMSMISRDPLQLVEHAIGPNHQYPDGLVLFLGTMFAPTQDRFGPGQGFTHQVADIVTISTPKLGALVNTVNFSDQTAPWTFGLTALFKNLADRKLI
notes: as for B2
B6: CnD-KdpD (Cupriavidus necator H16) (protein)
chain: MALPLTLSATQTLPADGLAGTLVGRAWIPASDGAPAGPAVVVLRPAGVFDISDVAPTMSTLLEQGDPVTVVHNTPGRWIGKLDDLLANTADPRGSDSVARLLAPCDLQVIKAAGVTFAGSLVERVIEEQTKGDPQGAAEVRNRIQALVGERLSRIRPGSREAGELKALLIEHGMWSQYLEVGIGPDAEIFTKAPLLSALGTGTEIGLHPGSAWNNPEPEIVLAINSRGDVLGATLGNDVNLRDFEGRSALLLGKAKDNNGSCAIGPFLRLFDQSLSLDDVRRATVDLRVDGLDGFVLSGTSSMDQITRDPLELAEQVMGATHQYPDGAMLFLGTLFAPVEDRDTAGGGFTHKDGDLVTISSRQLGSLVNRVGRSDRIAPWTFGVRALMANLAARGHTTF
notes: C-terminal His6 tag (kept), pET vector, E. coli BL21(DE3), HisTrap purified; strain given inconsistently (H16 gDNA vs N-1)
B7: PpD-KdpD (Pseudomonas putida KT2440) (protein)
chain: MTDRTNANQPLPLSHDASVFDRGSWVGRVWLPEQGPAVVLVKAGAVYDISTHVATVSALLEVDDPVAYLRALPLAEPLIALPALLGNSDPTRRTPHQPWLLAPIDLQAVKAAGVTFATSLLERVVEEQAKGDPAKADAIRDTLASRIGADLSQIVPGSAQAEALRKVLVEQGLWSQYLEVGIGPDAEVFTKAQPLSAVGHGADIGIHPKSSWNNPEPEVVLAVSSNGSIKGAMLGNDVNLRDFEGRSALLLSKAKDNNASTALGPLLRLFDESFGLDDVRAAEVDLRVEGEDGFILSGRSSMRQISRDPQDLVQQTLNENHQYPDGLVLFLGTLFAPKQDRDQPGNGFTHKPGDVVSISNPQLGTLCNRVTTSDLAPQWDFGLRALIDNLGRRGLLEVAATARPL
notes: as for B2
B8: CnL-KdpD (Nhis) (Cupriavidus necator H16) (protein)
chain: MTRTPSPTVYRGVFPVAPTVFDAQGGLDLDGQRRCIDFMIDAGSHGICILANFSEQFVLSDDERNVLMKTVLEHVDGRVPVIVTTTHFSSRLCAERSRAAQDAGAAMVMVMPPYHGATIRVPERSIYEFFATVSDAIDIPIMIQDAPVSGTTLSAPFLARMAREIGNVSYFKIEVPQAAAKLRELIELGGDAIVGPWDGEEAITLMADLEAGATGAMTGAGFPDGIRQILDAWQAGDAELAAQRYQQWLPLINYENRQGWLATSKVLMQAGGVIASDAVRHPLQPMHPATREGLLKIARRLDPLVLRWAR
notes: N-terminal His6 tag (kept), pET vector, E. coli BL21(DE3), HisTrap purified; strain given inconsistently (H16 gDNA vs N-1)
B9: CnL-KdpD (Chis) (Cupriavidus necator H16) (protein)
chain: B8 chain
notes: as for B6

How the values were obtained:
[1] = substrate: O=C(O)C(=O)C[C@H](O)CO; experiment: purified protein; format: biochemical, Paraburkholderia xenovorans; conditions: 2 mM NAD+ for coupling enzyme, 5 mM MgCl2, 50 mM HEPES pH 7.5, 25 °C
[2] = substrate: O=C(O)C(=O)C[C@@H](O)CO; experiment: purified protein, by the assay type; set-up: coupled assay with PpKGSADH, NADH formation at 340 nm, Michaelis-Menten fit, 25 °C, pH 7.5; conditions: pH 7.5; 25.0 °C
Method: (§1) To determine dehydratase activity, a coupled-assay with PpKGSADH as auxiliary enzyme was used to link the oxidation of KGSA to α-KG using NAD^+, as was described in a previous study (Beer et al. [2017]). The measurement was performed in a 96-well F-bottom plate (Greiner Bio-One, Germany). 20 μL of a diluted enzyme was added to a 96-well plate. A total of 180 μL of reaction solution containing different concentrations of either D-KDP or L-KDP with 0.5 U/mL PpKGSADH, 2 mM NAD^+, 5 mM MgCl2, 50 mM HEPES pH 7.5 (end concentration) were added subsequently. The measurement was performed with a Multiskan spectrophotometer (Thermo Scientific, Germany) by measuring the development of NADH at 340 nm at 25 °C. Enzyme activity (kcat) was defined as the number of NADH molecules formed per molecule of enzyme per second. Measurements were performed in triplicate.

[3] = substrate: O=C(O)C(=O)C[C@H](O)CO; experiment: purified protein; format: biochemical, Caulobacter vibrioides; conditions: 2 mM NAD+ for coupling enzyme, 5 mM MgCl2, 50 mM HEPES pH 7.5, 25 °C
[4] = substrate: O=C(O)C(=O)C[C@@H](O)CO; experiment: purified protein; format: biochemical, Azospirillum brasilense; conditions: 2 mM NAD+ for coupling enzyme, 5 mM MgCl2, 50 mM HEPES pH 7.5, 25 °C
[5] = substrate: O=C(O)C(=O)C[C@H](O)CO; experiment: purified protein, by the assay type; set-up: coupled assay with PpKGSADH, NADH formation at 340 nm, Michaelis-Menten fit, 25 °C, pH 7.5; conditions: pH 7.5; 25.0 °C
Method: as §1

[6] = substrate: O=C(O)C(=O)C[C@H](O)CO; experiment: purified protein; format: biochemical, Herbaspirillum seropedicae; conditions: 2 mM NAD+ for coupling enzyme, 5 mM MgCl2, 50 mM HEPES pH 7.5, 25 °C
[7] = substrate: O=C(O)C(=O)C[C@H](O)CO; experiment: purified protein; format: biochemical, Cupriavidus necator; conditions: 2 mM NAD+ for coupling enzyme, 5 mM MgCl2, 50 mM HEPES pH 7.5, 25 °C
[8] = substrate: O=C(O)C(=O)C[C@H](O)CO; experiment: purified protein; format: biochemical, Pseudomonas putida; conditions: 2 mM NAD+ for coupling enzyme, 5 mM MgCl2, 50 mM HEPES pH 7.5, 25 °C
[9] = substrate: O=C(O)C(=O)C[C@@H](O)CO; experiment: purified protein; format: biochemical, Cupriavidus necator; conditions: 2 mM NAD+ for coupling enzyme, 5 mM MgCl2, 50 mM HEPES pH 7.5, 25 °C

Row | Protein | Km [2] [µM] | kcat [2] [s⁻¹] | kcat/Km [2] [M⁻¹ s⁻¹] | Km [5] [µM] | kcat [5] [s⁻¹] | kcat/Km [5] [M⁻¹ s⁻¹] | further results
1 | B1 | 5080 ± 170 | 18.73 ± 0.15 | 3690 ± 180 |  |  |  | Km [1]: 280 ± 10 µM; kcat [1]: 63.6 ± 0.4 s⁻¹; kcat/Km [1]: 229800 ± 200 M⁻¹ s⁻¹
2 | B2 | 3960 ± 130 | 9.67 ± 0.08 | 2440 ± 180 |  |  |  | Km [3]: 290 ± 10 µM; kcat [3]: 55.8 ± 0.4 s⁻¹; kcat/Km [3]: 190600 ± 200 M⁻¹ s⁻¹
3 | B3 |  |  |  | 6810 ± 350 | 6.65 ± 0.1 | 980 ± 230 | Km [4]: 190 ± 20 µM; kcat [4]: 13.6 ± 0.3 s⁻¹; kcat/Km [4]: 71300 ± 300 M⁻¹ s⁻¹
4 | B4 | 2810 ± 120 | 7.99 ± 0.08 | 2840 ± 210 |  |  |  | Km [3]: 250 ± 10 µM; kcat [3]: 45.6 ± 0.3 s⁻¹; kcat/Km [3]: 185700 ± 200 M⁻¹ s⁻¹
5 | B5 | 3180 ± 180 | 16.9 ± 0.21 | 5320 ± 230 |  |  |  | Km [6]: 170 ± 10 µM; kcat [6]: 58.2 ± 0.4 s⁻¹; kcat/Km [6]: 347900 ± 200 M⁻¹ s⁻¹
6 | B6 | 2490 ± 200 | 4.24 ± 0.07 | 1700 ± 280 |  |  |  | Km [7]: 230 ± 20 µM; kcat [7]: 13.8 ± 0.2 s⁻¹; kcat/Km [7]: 58900 ± 400 M⁻¹ s⁻¹
7 | B7 | 6120 ± 210 | 19.64 ± 0.17 | 3210 ± 190 |  |  |  | Km [8]: 350 ± 10 µM; kcat [8]: 75.9 ± 0.6 s⁻¹; kcat/Km [8]: 219900 ± 200 M⁻¹ s⁻¹
8 | B8 |  |  |  | 4080 ± 210 | 12 ± 0.16 | 2950 ± 230 | Km [9]: 170 ± 0 µM; kcat [9]: 23.4 ± 0.1 s⁻¹; kcat/Km [9]: 137200 ± 200 M⁻¹ s⁻¹
9 | B9 |  |  |  | 6400 ± 170 | 11.01 ± 0.08 | 1720 ± 160 | Km [9]: 160 ± 10 µM; kcat [9]: 22.5 ± 0.2 s⁻¹; kcat/Km [9]: 137500 ± 200 M⁻¹ s⁻¹
